Test results published in IntAct's records for PubMed 12869544.

B1: Translocase of chloroplast 33, chloroplastic (Arabidopsis thaliana (Mouse-ear cress)), O23680 (parent)
chain: MGSLVREWVGFQQFPAATQEKLIEFFGKLKQKDMNSMTVLVLGKGGVGKSSTVNSLIGEQVVRVSPFQAEGLRPVMVSRTMGGFTINIIDTPGLVEAGYVNHQALELIKGFLVNRTIDVLLYVDRLDVYRVDELDKQVVIAITQTFGKEIWCKTLLVLTHAQFSPPDELSYETFSSKRSDSLLKTIRAGSKMRKQEFEDSAIAVVYAENSGRCSKNDKDEKALPNGEAWIPNLVKAITDVATNQRKAIHVDKKMVDGSYSDDKGKKLIPLIIGAQYLIVKMIQGAIRNDIKTSGKPL

Variants of: B1
Conditions: with tc159_arath TOC159, O81283
Sequence of tc159_arath TOC159, O81283 (O81283 whole entry): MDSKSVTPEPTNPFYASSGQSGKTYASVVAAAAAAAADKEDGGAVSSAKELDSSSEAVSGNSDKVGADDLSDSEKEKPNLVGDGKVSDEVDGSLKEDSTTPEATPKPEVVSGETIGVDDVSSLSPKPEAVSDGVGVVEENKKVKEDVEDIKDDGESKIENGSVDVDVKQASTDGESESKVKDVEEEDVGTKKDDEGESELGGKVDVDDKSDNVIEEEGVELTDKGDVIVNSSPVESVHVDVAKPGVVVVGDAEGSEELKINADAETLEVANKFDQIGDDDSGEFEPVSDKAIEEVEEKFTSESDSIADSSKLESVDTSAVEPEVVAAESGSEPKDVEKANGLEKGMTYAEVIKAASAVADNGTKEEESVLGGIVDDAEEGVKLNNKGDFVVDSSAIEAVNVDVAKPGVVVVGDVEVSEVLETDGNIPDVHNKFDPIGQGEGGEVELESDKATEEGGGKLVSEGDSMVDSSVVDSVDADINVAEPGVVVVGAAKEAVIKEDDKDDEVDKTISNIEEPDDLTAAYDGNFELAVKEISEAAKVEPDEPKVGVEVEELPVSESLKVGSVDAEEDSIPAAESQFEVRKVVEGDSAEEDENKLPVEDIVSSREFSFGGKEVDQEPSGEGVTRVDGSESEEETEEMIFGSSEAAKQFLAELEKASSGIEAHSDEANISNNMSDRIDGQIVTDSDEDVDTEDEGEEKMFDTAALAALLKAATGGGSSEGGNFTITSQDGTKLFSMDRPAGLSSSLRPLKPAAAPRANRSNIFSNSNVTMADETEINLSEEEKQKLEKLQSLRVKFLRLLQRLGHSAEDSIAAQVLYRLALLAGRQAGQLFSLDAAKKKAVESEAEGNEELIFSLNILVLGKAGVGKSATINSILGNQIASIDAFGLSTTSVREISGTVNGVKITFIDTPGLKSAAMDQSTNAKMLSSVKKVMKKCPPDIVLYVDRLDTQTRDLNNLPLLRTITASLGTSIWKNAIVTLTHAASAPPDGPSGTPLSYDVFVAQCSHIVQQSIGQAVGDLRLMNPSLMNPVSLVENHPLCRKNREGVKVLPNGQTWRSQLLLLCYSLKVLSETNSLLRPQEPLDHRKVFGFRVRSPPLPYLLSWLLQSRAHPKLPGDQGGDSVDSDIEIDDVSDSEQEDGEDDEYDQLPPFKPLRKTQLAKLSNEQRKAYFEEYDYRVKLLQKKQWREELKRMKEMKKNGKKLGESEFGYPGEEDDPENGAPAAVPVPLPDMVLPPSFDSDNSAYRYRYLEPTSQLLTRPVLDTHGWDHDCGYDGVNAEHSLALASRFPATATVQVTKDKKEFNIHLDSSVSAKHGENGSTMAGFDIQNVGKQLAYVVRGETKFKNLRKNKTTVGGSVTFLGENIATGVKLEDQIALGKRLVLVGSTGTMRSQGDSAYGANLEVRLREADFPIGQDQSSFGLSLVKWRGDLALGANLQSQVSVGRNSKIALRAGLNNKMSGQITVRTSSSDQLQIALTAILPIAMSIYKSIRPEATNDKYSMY

Row | Variant | effect of a mutation on the interaction
1 | R130A | decreasing interaction
